{
  "source": "paper PMC4383033",
  "about": "“Architecture of the ring formed by the tubulin homologue FtsZ in bacterial cell division” (eLife, 2014)",
  "binders": {"B1": {"name": "Thermotoga maritima FtsA (natural protein, UniProt Q9WZU0 1-419, looked up)", "chain": "MIDLSKTVFYTSIDIGSRYIKGLVLGKRDQEWEALAFSSVKSRGLDEGEIKDAIAFKESVNTLLKELEEQLQKSLRSDFVISFSSVSFEREDTVIERDFGEEKRSITLDILSEMQSEALEKLKENGKTPLHIFSKRYLLDDERIVFNPLDMKASKIAIEYTSIVVPLKVYEMFYNFLQDTVKSPFQLKSSLVSTAEGVLTTPEKDRGVVVVNLGYNFTGLIAYKNGVPIKISYVPVGMKHVIKDVSAVLDTSFEESERLIITHGNAVYNDLKEEEIQYRGLDGNTIKTTTAKKLSVIIHARLREIMSKSKKFFREVEAKIVEEGEIGIPGGVVLTGGGAKIPRINELATEVFKSPVRTGCYANSDRPSIINADEVANDPSFAAAFGNVFAVSENPYEETPVKSENPLKKIFRLFKELME", "notes": "FtsA of Thermotoga maritima; 'completely unmodified'; the C-terminal tail (amphipathic helix) was verified by ESMS to be intact after purification; It says 'completely unmodified' with intact C-terminal tails; also called TmFtsA; source: purified as described previously (Szwedziak et al., 2012)"}},
  "key": {"Thermotoga maritima FtsA": {"molecular_target": "B1", "assay": "transmission electron cryomicroscopy of liposomes; proteins on the outside of liposomes of E. coli total lipid extract; TmFtsA 20 uM, TmFtsZ 60 uM or both; 50 mM Tris/HCl, 100 mM NaCl, 1 mM EDTA, 1 mM NaN3, pH 7.5; room temperature", "conditions": "both partners purified"}, "[1]": {"molecular_target": "the molecule itself", "assay": "electron cryomicroscopy and cryotomography of liposomes; TmFtsZ (30 uM) and TmFtsA (10 uM) encapsulated in liposomes of E. coli total lipid extract by dilution of CHAPS; 0.5 mM MgGTP, MgGMPCPP or no nucleotide; TEN100 7.5 buffer; room temperature"}},
  "data": [
    {"binder": "Thermotoga maritima FtsZ (natural protein, UniProt O08398 1-351, looked up, FtsZ of Thermotoga maritima; 'completely unmodified'; the C-terminal tail was verified by ESMS to be intact after purification; It says 'completely unmodified' with intact C-terminal tails; also called TmFtsZ; source: purified as described previously (Szwedziak et al., 2012)) MGFDLDVEKKKENRNIPQANNLKIKVIGVGGAGNNAINRMIEIGIHGVEFVAVNTDLQVLEASNADVKIQIGENITRGLGAGGRPEIGEQAALESEEKIREVLQDTHMVFITAGFGGGTGTGASPVIAKIAKEMGILTVAIVTTPFYFEGPERLKKAIEGLKKLRKHVDTLIKISNNKLMEELPRDVKIKDAFLKADETLHQGVKGISELITKRGYINLDFADIESVMKDAGAAILGIGVGKGEHRAREAAKKAMESKLIEHPVENASSIVFNITAPSNIRMEEVHEAAMIIRQNSSEDADVKFGLIFDDEVPDDEIRVIFIATRFPDEDKILFPEGDIPAIYRYGLEGLL", "values": [
      {"measurement": "binding result", "setting": "Thermotoga maritima FtsA", "result": "binds"},
      {"measurement": "binding result", "setting": "[1]", "result": "binds"}
    ]},
    {"binder": "B1", "values": [
      {"measurement": "binding result", "setting": "[1]", "result": "binds"}
    ]}
  ]
}
